The values that follow come from PMC13385800 (2026).

The labels stand for the following.
B1: TBLR1-LgBiT wild type [not stated] / ANKRD11-SmBiT [not stated] (parent complex)
chain 1: MSISSDEVNFLVYRYLQESGFSHSAFTFGIESHISQSNINGALVPPAALISIIQKGLQYVEAEVSINEDGTLFDGRPIESLSLIDAVMPDVVQTRQQAYRDKLAQQQAAAAAAAAAAASQQGSAKNGENTANGEENGAHTIANNHTDMMEVDGDVEIPPNKAVVLRGHESEVFICAWNPVSDLLASGSGDSTARIWNLSENSTSGSTQLVLRHCIREGGQDVPSNKDVTSLDWNSEGTLLATGSYDGFARIWTKDGNLASTLGQHKGPIFALKWNKKGNFILSAGVDKTTIIWDAHTGEAKQQFPFHSAPALDVDWQSNNTFASCSTDMCIHVCKLGQDRPIKTFQGHTNEVNAIKWDPTGNLLASCSDDMTLKIWSMKQDNCVHDLQAHNKEIYTIKWSPTGPGTNNPNANLMLASASFDSTVRLWDVDRGICIHTLTKHQEPVYSVAFSPDGRYLASGSFDKCVHIWNTQTGALVHSYRGTGGIFEVCWNAAGDKVGASASDGSVCVLDLRK
chain 2: MPKGGCPKAPQQEELPLSSDMVEKQTGKKDKDKVSLTKTPKLERGDGGKEVRERASKRKLPFTAGANGEQKDSDTEKQGPERKRIKKEPVTRKAGLLFGMGLSGIRAGYPLSERQQVALLMQMTAEESANSPVDTTPKHPSQSTVCQKGTPNSASKTKDKVNKRNERGETRLHRAAIRGDARRIKELISEGADVNVKDFAGWTALHEACNRGYYDVAKQLLAAGAEVNTKGLDDDTPLHDAANNGHYKVVKLLLRYGGNPQQSNRKGETPLKVANSPTMVNLLLGKGTYTSSEESSTESSEEEDAPSFAPSSSVDGNNTDSEFEKGLKHKAKNPEPQKATAPVKDEYEFDEDDEQDRVPPVDDKHLLKKDYRKETKSNSFISIPKMEVKSYTKNNTIAPKKASHRILSDTSDEEDASVTVGTGEKLRLSAHTILPGSKTREPSNAKQQKEKNKVKKKRKKETKGREVRFGKRSDKFCSSESESESSESGEDDRDSLGSSGCLKGSPLVLKDPSLFSSLSASSTSSHGSSAAQKQNPSHTDQHTKHWRTDNWKTISSPAWSEVSSLSDSTRTRLTSESDYSSEGSSVESLKPVRKRQEHRKRASLSEKKSPFLSSAEGAVPKLDKEGKVVKKHKTKHKHKNKEKGQCSISQELKLKSFTYEYEDSKQKSDKAILLENDLSTENKLKVLKHDRDHFKKEEKLSKMKLEEKEWLFKDEKSLKRIKDTNKDISRSFREEKDRSNKAEKERSLKEKSPKEEKLRLYKEERKKKSKDRPSKLEKKNDLKEDKISKEKEKIFKEDKEKLKKEKVYREDSAFDEYCNKNQFLENEDTKFSLSDDQRDRWFSDLSDSSFDFKGEDSWDSPVTDYRDMKSDSVAKLILETVKEDSKERRRDSRAREKRDYREPFFRKKDRDYLDKNSEKRKEQTEKHKSVPGYLSEKDKKRRESAEAGRDRKDALESCKERRDGRAKPEEAHREELKECGCESGFKDKSDGDFGKGLEPWERHHPAREKEKKDGPDKERKEKTKPERYKEKSSDKDKSEKSILEKCQKDKEFDKCFKEKKDTKEKHKDTHGKDKERKASLDQGKEKKEKAFPGIISEDFSEKKDDKKGKEKSWYIADIFTDESEDDRDSCMGSGFKMGEASDLPRTDGLQEKEEGREAYASDRHRKSSDKQHPERQKDKEPRDRRKDRGAADAGRDKKEKVFEKHKEKKDKESTEKYKDRKDRASVDSTQDKKNKQKLPEKAEKKHAAEDKAKSKHKEKSDKEHSKERKSSRSADAEKSLLEKLEEEALHEYREDSNDKISEVSSDSFTDRGQEPGLTAFLEVSFTEPPGDDKPRESACLPEKLKEKERHRHSSSSSKKSHDRERAKKEKAEKKEKGEDYKEGGSRKDSGQYEKDFLEADAYGVSYNMKADIEDELDKTIELFSTEKKDKNDSEREPSKKIEKELKPYGSSAINILKEKKKREKHREKWRDEKERHRDRHADGLLRHHRDELLRHHRDEQKPATRDKDSPPRVLKDKSRDEGPRLGDAKLKEKFKDGAEKEKGDPVKMSNGNDKVAPSKDPGKKDARPREKLLGDGDLMMTSFERMLSQKDLEIEERHKRHKERMKQMEKLRHRSGDPKLKEKAKPADDGRKKGLDIPAKKPPGLDPPFKDKKLKESTPIPPAAENKLHPASGADSKDWLAGPHMKEVLPASPRPDQSRPTGVPTPTSVLSCPSYEEVMHTPRTPSCSADDYADLVFDCADSQHSTPVPTAPTSACSPSFFDRFSVASSGLSENASQAPARPLSTNLYRSVSVDIRRTPEEEFSVGDKLFRQQSVPAASSYDSPMPPSMEDRAPLPPVPAEKFACLSPGYYSPDYGLPSPKVDALHCPPAAVVTVTPSPEGVFSSLQAKPSPSPRAELLVPSLEGALPPDLDTSEDQQATAAIIPPEPSYLEPLDEGPFSAVITEEPVEWAHPSEQALASSLIGGTSENPVSWPVGSDLLLKSPQRFPESPKRFCPADPLHSAAPGPFSASEAPYPAPPASPAPYALPVAEPGLEDVKDGVDAVPAAISTSEAAPYAPPSGLESFFSNCKSLPEAPLDVAPEPACVAAVAQVEALGPLENSFLDGSRGLSHLGQVEPVPWADAFAGPEDDLDLGPFSLPELPLQTKDAADGEAEPVEESLAPPEEMPPGAPGVINGGDVSTVVAEEPPALPPDQASTRLPAELEPEPSGEPKLDVALEAAVEAETVPEERARGDPDSSVEPAPVPPEQRPLGSGDQGAEAEGPPAASLCAPDGPAPNTVAQAQAADGAGPEDDTEASRAAAPAEGPPGGIQPEAAEPKPTAEAPKAPRVEEIPQRMTRNRAQMLANQSKQGPPPSEKECAPTPAPVTRAKARGSEDDDAQAQHPRKRRFQRSTQQLQQQLNTSTQQTREVIQQTLAAIVDAIKLDAIEPYHSDRANPYFEYLQIRKKIEEKRKILCCITPQAPQCYAEYVTYTGSYLLDGKPLSKLHIPVIAPPPSLAEPLKELFRQQEAVRGKLRLQHSIEREKLIVSCEQEILRVHCRAARTIANQAVPFSACTMLLDSEVYNMPLESQGDENKSVRDRFNARQFISWLQDVDDKYDRMKTCLLMRQQHEAAALNAVQRMEWQLKVQELDPAGHKSLCVNEVPSFYVPMVDVNDDFVLLPA
B2: TBLR1-LgBiT wild type [not stated] / SETD5-SmBiT [not stated] (parent complex)
chain 1: B1 chain 1
chain 2: MSIAIPLGVTTSDTSYSDMAAGSDPESVEASPAVNEKSVYSTHNYGTTQRHGCRGLPYATIIPRSDLNGLPSPVEERCGDSPNSEGETVPTWCPCGLSQDGFLLNCDKCRGMSRGKVIRLHRRKQDNISGGDSSATESWDEELSPSTVLYTATQHTPTSITLTVRRTKPKKRKKSPEKGRAAPKTKKIKNSPSEAQNLDENTTEGWENRIRLWTDQYEEAFTNQYSADVQNALEQHLHSSKEFVGKPTILDTINKTELACNNTVIGSQMQLQLGRVTRVQKHRKILRAARDLALDTLIIEYRGKVMLRQQFEVNGHFFKKPYPFVLFYSKFNGVEMCVDARTFGNDARFIRRSCTPNAEVRHMIADGMIHLCIYAVSAITKDAEVTIAFDYEYSNCNYKVDCACHKGNRNCPIQKRNPNATELPLLPPPPSLPTIGAETRRRKARRKELEMEQQNEASEENNDQQSQEVPEKVTVSSDHEEVDNPEEKPEEEKEEVIDDQENLAHSRRTREDRKVEAIMHAFENLEKRKKRRDQPLEQSNSDVEITTTTSETPVGEETKTEAPESEVSNSVSNVTIPSTPQSVGVNTRRSSQAGDIAAEKLVPKPPPAKPSRPRPKSRISRYRTSSAQRLKRQKQANAQQAELSQAALEEGGSNSLVTPTEAGSLDSSGENRPLTGSDPTVVSITGSHVNRAASKYPKTKKYLVTEWLNDKAEKQECPVECPLRITTDPTVLATTLNMLPGLIHSPLICTTPKHYIRFGSPFIPERRRRPLLPDGTFSSCKKRWIKQALEEGMTQTSSVPQETRTQHLYQSNENSSSSSICKDNADLLSPLKKWKSRYLMEQNVTKLLRPLSPVTPPPPNSGSKSPQLATPGSSHPGEEECRNGYSLMFSPVTSLTTASRCNTPLQFELCHRKDLDLAKVGYLDSNTNSCADRPSLLNSGHSDLAPHPSLGPTSETGFPSRSGDGHQTLVRNSDQAFRTEFNLMYAYSPLNAMPRADGLYRGSPLVGDRKPLHLDGGYCSPAEGFSSRYEHGLMKDLSRGSLSPGGERACEGVPSAPQNPPQRKKVSLLEYRKRKQEAKENSAGGGGDSAQSKSKSAGAGQGSSNSVSDTGAHGVQGSSARTPSSPHKKFSPSHSSMSHLEAVSPSDSRGTSSSHCRPQENISSRWMVPTSVERLREGGSIPKVLRSSVRVAQKGEPSPTWESNITEKDSDPADGEGPETLSSALSKGATVYSPSRYSYQLLQCDSPRTESQSLLQQSSSPFRGHPTQSPGYSYRTTALRPGNPPSHGSSESSLSSTSYSSPAHPVSTDSLAPFTGTPGYFSSQPHSGNSTGSNLPRRSCPSSAASPTLQGPSDSPTSDSVSQSSTGTLSSTSFPQNSRSSLPSDLRTISLPSAGQSAVYQASRVSAVSNSQHYPHRGSGGVHQYRLQPLQGSGVKTQTGLS

In the first experiment the parent is B1. Nature of the experiment: NanoLuc complementation assay; n = 3–5 independent transfections per TBLR1 mutant; read off a plot.
For the variant chain 1 MSISSDEVNFLVYRYLQESGFSHSAFTFGIESHISQSNINGALVPPAALISIIQKGLQYVEAEVSINEDGTLFDGRPIESLSQIDAVMPDVVQTRQQAYRDKLAQQQAAAAAAAAAAASQQGSAKNGENTANGEENGAHTIANNHTDMMEVDGDVEIPPNKAVVLRGHESEVFICAWNPVSDLLASGSGDSTARIWNLSENSTSGSTQLVLRHCIREGGQDVPSNKDVTSLDWNSEGTLLATGSYDGFARIWTKDGNLASTLGQHKGPIFALKWNKKGNFILSAGVDKTTIIWDAHTGEAKQQFPFHSAPALDVDWQSNNTFASCSTDMCIHVCKLGQDRPIKTFQGHTNEVNAIKWDPTGNLLASCSDDMTLKIWSMKQDNCVHDLQAHNKEIYTIKWSPTGPGTNNPNANLMLASASFDSTVRLWDVDRGICIHTLTKHQEPVYSVAFSPDGRYLASGSFDKCVHIWNTQTGALVHSYRGTGGIFEVCWNAAGDKVGASASDGSVCVLDLRK [chain 1 L83Q], the ratio to parent is roughly 0.06.

The variants in another experiment derive from B2. Nature of the experiment: NanoLuc complementation assay; n = 6–7 independent transfections per TBLR1 mutant; read off a plot.
Regarding chain 1 MSISSDEVNFLVYRYLQESGFSHSAFTFGIESHISQSNINGALVPPAALISIIQKGLQYVEAEVSINEDGTLFDGRPIESLSLIDAVMPDVVQTRQQAYRDKLAQQQAAAAAAAAAAASQQGSAKNGENTANGEENGAHTIANNHTDMMEVDGDVEIPPNKAVVLRGHESEVFICAWNPVSDLLASGSGDSTARIWNLSENSTSGSTQLVLRHCIREGGQDVPSNKDVTSLDWNSEGTLLATGSYDGFARIWTKDGNLASTLGQHKGPIFALKWNKKGNFILSAGVDKTTIIWDAHTGEAKQQFPFHSAPALDVDWQSNNTFASCSTDMCIHVCKLGQDRPIKTFQGHTNEVNAIKWDPTGNLLASCSDDMTLKIWSMKQDNCVHDLQAHNKEIYTIKWSPTGPGTNNPNANLMLASASFDSTVRLWDVDRGICIHTLTKRQEPVYSVAFSPDGRYLASGSFDKCVHIWNTQTGALVHSYRGTGGIFEVCWNAAGDKVGASASDGSVCVLDLRK [chain 1 H441R], the ratio to parent was roughly 0.55.
Still for that read-out and setting: in the case of chain 1 MSISSDEVNFLVYRYLQESGFSHSAFTFGIESHISQSNINGALVPPAALISIIQKGLQYVEAEVSINEDGTLFDGRPIESLSLIDAVMPDVVQTRQQAYRDKLAQQQAAAAAAAAAAASQQGSAKNGENTANGEENGAHTIANNHTDMMEVDGDVEIPPNKAVVLRGHESEVFICAWNPVSDLLASGSGDSTARIWNLSENSTSGSTQLVLRQCIREGGQDVPSNKDVTSLDWNSEGTLLATGSYDGFARIWTKDGNLASTLGQHKGPIFALKWNKKGNFILSAGVDKTTIIWDAHTGEAKQQFPFHSAPALDVDWQSNNTFASCSTDMCIHVCKLGQDRPIKTFQGHTNEVNAIKWDPTGNLLASCSDDMTLKIWSMKQDNCVHDLQAHNKEIYTIKWSPTGPGTNNPNANLMLASASFDSTVRLWDVDRGICIHTLTKHQEPVYSVAFSPDGRYLASGSFDKCVHIWNTQTGALVHSYRGTGGIFEVCWNAAGDKVGASASDGSVCVLDLRK [chain 1 H213Q] it was roughly 1.2.
